The assay has as its target recombinant human Cyclophilin A (CypA) (human) (UniProt P62937). Briefly: SPR. A general note: SPR reads the build-up and loss of mass on a sensor chip optically.

Broadly, the Kd is the free concentration of one partner at which half of the binding sites on the other are occupied at equilibrium, for simple one-to-one binding.

recombinant human Cyclophilin A (CypA) (human), sequence (P62937 whole entry): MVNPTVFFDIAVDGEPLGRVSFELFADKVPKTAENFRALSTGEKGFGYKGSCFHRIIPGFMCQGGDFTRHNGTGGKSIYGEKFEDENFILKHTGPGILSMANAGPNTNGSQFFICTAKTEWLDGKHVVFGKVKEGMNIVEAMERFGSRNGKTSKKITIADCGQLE

For the substance “synthetic mutant HIV-1 Vpr peptide sVpr^1-40 P5,10,14N”, the Kd is 6.15 mM; the ka1 (two-state model, association) stood at 46 M⁻¹ s⁻¹; the ka2 (two-state model, forward rate) was 0.0047 s⁻¹; the kd1 (two-state model, dissociation) is 0.56 s⁻¹. The kd2 (two-state model, backward rate) was 0.0048 s⁻¹.

As for synthetic HIV-1 Vpr peptide sVpr^1-40, the Kd was determined as 0.284 mM; the ka1 (two-state model, association) was 752 M⁻¹ s⁻¹; the ka2 (two-state model, forward rate) was 0.0073 s⁻¹; the kd1 (two-state model, dissociation) was 0.37 s⁻¹. Moreover, the kd2 (two-state model, backward rate) came to 0.0099 s⁻¹.

Source of the values: article PMC2959089, “The intriguing Cyclophilin A-HIV-1 Vpr interaction: prolyl cis/trans isomerisation catalysis and specific binding” (BMC Structural Biology, 2010).
